Test results: patent US20120277142A1 (HANALL BIOPHARMA, published 2012)

Target: T1, TNF-α (UniProt P01375 77-233, limits assumed)
T1 construct: also called tumor necrosis factor; ligand
Assay: competition ELISA: sample vs plate-bound TNFRI190 for TNF-α, from IC50, relative to wild-type TNFRI171
Method: (§1) Each well was washed three times with 300 μL of washing buffer (0.05% Tween-20, PBS, pH 7.4) and incubated at room temperature for 2 hours with 300 μL of a blocking buffer (5% skim milk, PBS, pH 7.4). Then, each well was washed as mentioned above. A sample of interest was diluted to concentrations of 500 nM, 125 nM, 31 nM, 7.8 nM, 1.9 nM, 0.48 nM, 0.12 nM, and 0.03 nM in series and loaded in an amount of 100 μL into each well in duplicate. To each well was added 100 μL of 50 ng/ml TNF-α, followed by incubation at room temperature for 2 hours. After the wells were washed with a washing buffer, 100 μg/mL anti-TNF-α antibody solution was diluted 1/1000, added in an amount of 100 μL per each well, and incubated at room temperature for 2 hours. After the plates were washed with a washing buffer, a substrate was added in an amount of 100 μL to each well and reacted at room temperature for 15 min. In each well, 100 μL of the substrate 3,3′,5,5′-tetramethylbenzidine (RnD, Cat. No: DY999) was reacted at room temperature for 15 min, followed by adding 50 μL of 1.0 M sulfuric acid (Samchun Chemical, Cat. No: 52129) to each well to stop the reaction.
The affinity of the Met-TNFRI for TNF-α was assayed using the same procedure as in [Experimental Example 1]

| Binder | Relative Affinity for Ligand (%) |
| --- | --- |
| TNFRI171-S63 (receptor, Met-TNFRI171 superlead mutant made in E. coli; also called TNFRI-S63) MDSVCPQGKYIHPQNNSICCTKCHKGTYVYNDCPGPGQDTDCRECESGSFTAMENFLPGCLSCSKCRKEMGQVEISSCTVDRDTVCGCRKNQYRHYWSENLFQCFNCSLCLNGTVHLSCQENQNTVCTCHAGFFLRENECVSCSNCKKSLECTKLCLPQIENVKGTEDSGTT | 1350% |
| TNFRI171-S60 (receptor, Met-TNFRI171 superlead mutant made in E. coli) MDSVCPQGKYIHPQNNSICCTKCHKGTYVYNDCPGPGQDTDCRECESGSFTAHENFLPACLSCSKCRKEMGQVEISSCTVDRDTVCGCRKNQYRHYWSENLFQCFNCSLCLNGTVHLSCQENQNTVCTCHAGFFLRENECVSCSNCKKSLECTKLCLPQIENVKGTEDSGTT | 775% |
| TNFRI171-S61 (receptor, Met-TNFRI171 superlead mutant made in E. coli) MDSVCPQGKYIHPQNNSICCTKCHKGTYVYNDCPGPGQDTDCRECESGSFTAHENFLPACLSCSKCRKEMGQVEISSCTVDRDTVCGCRKNQYRHYWSENLFQCFNCSLCLNGTVHLSCQEKQNTVCTCHAGFFLRENECVSCSNCKKSLECTKLCLPQIENVKGTENSGTT | 778% |

The next lines start with the values.

| Relative Affinity for Ligand (%) | Binder |
| --- | --- |
| 973% | TNFRI171-S55 (receptor, Met-TNFRI171 superlead mutant made in E. coli) MDSVCPQGKYIHPQNNSICCTKCHKGTYVYNDCPGPGQDTDCRECESGSFTAIENFLPACLSCSKCRKEMGQVEISSCTVDRDTVCGCRKNQYRHYWSENLFQCFNCSLCLNGTVHLSCQEKQNTVCTCHAGFFLRENECVSCSNCKKSLECTKLCLPQIENVKGTENSGTT |
| 773% | TNFRI171-S57 (receptor, Met-TNFRI171 superlead mutant made in E. coli) MDSVCPQGKYIHPQNNSICCTKCHKGTYVYNDCPGPGQDTDCRECESGSFTAMENFLPACLSCSKCRKEMGQVEISSCTVDRDTVCGCRKNQYRHYWSENLFQCFNCSLCLNGTVHLSCQENQNTVCTCHAGFFLRENECVSCSNCKKSLECTKLCLPQIENVKGTEDSGTT |
| 978% | TNFRI171-S58 (receptor, Met-TNFRI171 superlead mutant made in E. coli) MDSVCPQGKYIHPQNNSICCTKCHKGTYVYNDCPGPGQDTDCRECESGSFTAMENFLPACLSCSKCRKEMGQVEISSCTVDRDTVCGCRKNQYRHYWSENLFQCFNCSLCLNGTVHLSCQEKQNTVCTCHAGFFLRENECVSCSNCKKSLECTKLCLPQIENVKGTENSGTT |
| 684% | TNFRI171-S59 (receptor, Met-TNFRI171 superlead mutant made in E. coli) MDSVCPQGKYIHPQNNSICCTKCHKGTYVYNDCPGPGQDTDCRECESGSFTAHENFLPACLSCSKCRKEMGQVEISSCTVDRDTVCGCRKNQYRHYWSENLFQCFNCSLCLNGTVHLSCQEQQNTVCTCHAGFFLRENECVSCSNCKKSLECTKLCLPQIENVKGTEDSGTT |
| 1200% | TNFRI171-S62 (receptor, Met-TNFRI171 superlead mutant made in E. coli) MDSVCPQGKYIHPQNNSICCTKCHKGTYVYNDCPGPGQDTDCRECESGSFTAIENFLPGCLSCSKCRKEMGQVEISSCTVDRDTVCGCRKNQYRHYWSENLFQCFNCSLCLNGTVHLSCQEQQNTVCTCHAGFFLRENECVSCSNCKKSLECTKLCLPQIENVKGTEDSGTT |
| 510% | TNFRI171-S56 (receptor, Met-TNFRI171 superlead mutant made in E. coli) MDSVCPQGKYIHPQNNSICCTKCHKGTYVYNDCPGPGQDTDCRECESGSFTAMENFLPACLSCSKCRKEMGQVEISSCTVDRDTVCGCRKNQYRHYWSENLFQCFNCSLCLNGTVHLSCQEQQNTVCTCHAGFFLRENECVSCSNCKKSLECTKLCLPQIENVKGTEDSGTT |

Target: T1, TNF-α
Assay: competition ELISA: sample vs plate-bound TNFRI190 for TNF-α, from IC50, relative to wild-type TNFRI126
Method: as §1
Affinity of Met-TNFRI and Met-TNFRI mutants for TNF-α was determined by measuring an absorbance change with concentration and evaluating IC₅₀ value by measuring an absorbance change with concentration.

| Binder | Affinity (%) |
| --- | --- |
| TNFRI126-A2 (receptor, Met-TNFRI126 mutant made in E. coli) MDSVCPQGKYIHPQNNSICCTKCHKGTYLYNDCPGPGQDTDCRECESGSFTAIENFLPACLSCSKCRKEMGQVEISSCTVDRDTVCGCRKNQYRHYWSENLFQCFNCSLCLNGTVHLSCQEKQNTVC | 829% |
| TNFRI126-A5 (receptor, Met-TNFRI126 mutant made in E. coli) MDSVCPQGKYIHPQNNSICCTKCHKGTYLYNDCPGPGQDTDCRECESGSFTAVENFLPACLSCSKCRKEMGQVEISSCTVDRDTVCGCRKNQYRHYWSENLFQCFNCSLCLNGTVHLSCQEKQNTVC | 712% |
| TNFRI126-A13 (receptor, Met-TNFRI126 mutant made in E. coli) MDSVCPQGKYIHPQNNSICCTKCHKGTYLYNDCPGPGQDTDCRECESGSFTAQENFLPACLSCSKCRKEMGQVEISSCTVDRDTVCGCRKNQYRHYWSENLFQCFNCSLCLNGTVHLSCQEKQNTVC | 806% |
| TNFRI126-A16 (receptor, Met-TNFRI126 mutant made in E. coli) MDSVCPQGKYIHPQNNSICCTKCHKGTYLYNDCPGPGQDTDCRECESGSFTAKENFLPACLSCSKCRKEMGQVEISSCTVDRDTVCGCRKNQYRHYWSENLFQCFNCSLCLNGTVHLSCQEKQNTVC | 882% |
| TNFRI126-A1 (receptor, Met-TNFRI126 mutant made in E. coli) MDSVCPQGKYIHPQNNSICCTKCHKGTYLYNDCPGPGQDTDCRECESGSFTASENFLPACLSCSKCRKEMGQVEISSCTVDRDTVCGCRKNQYRHYWSENLFQCFNCSLCLNGTVHLSCQEKQNTVC | 324% |
| TNFRI126-A12 (receptor, Met-TNFRI126 mutant made in E. coli) MDSVCPQGKYIHPQNNSICCTKCHKGTYLYNDCPGPGQDTDCRECESGSFTANENFLPACLSCSKCRKEMGQVEISSCTVDRDTVCGCRKNQYRHYWSENLFQCFNCSLCLNGTVHLSCQEKQNTVC | 659% |
| TNFRI126-A15 (receptor, Met-TNFRI126 mutant made in E. coli) MDSVCPQGKYIHPQNNSICCTKCHKGTYLYNDCPGPGQDTDCRECESGSFTAYENFLPACLSCSKCRKEMGQVEISSCTVDRDTVCGCRKNQYRHYWSENLFQCFNCSLCLNGTVHLSCQEKQNTVC | 941% |
| TNFRI126-A4 (receptor, Met-TNFRI126 mutant made in E. coli) MDSVCPQGKYIHPQNNSICCTKCHKGTYLYNDCPGPGQDTDCRECESGSFTAAENFLPACLSCSKCRKEMGQVEISSCTVDRDTVCGCRKNQYRHYWSENLFQCFNCSLCLNGTVHLSCQEKQNTVC | 524% |
| TNFRI126-A10 (receptor, Met-TNFRI126 mutant made in E. coli) MDSVCPQGKYIHPQNNSICCTKCHKGTYLYNDCPGPGQDTDCRECESGSFTAWENFLPACLSCSKCRKEMGQVEISSCTVDRDTVCGCRKNQYRHYWSENLFQCFNCSLCLNGTVHLSCQEKQNTVC | 800% |

Second part, the binder after the results:

| Affinity (%) | Binder |
| --- | --- |
| 771% | TNFRI126-A17 (receptor, Met-TNFRI126 mutant made in E. coli) MDSVCPQGKYIHPQNNSICCTKCHKGTYLYNDCPGPGQDTDCRECESGSFTARENFLPACLSCSKCRKEMGQVEISSCTVDRDTVCGCRKNQYRHYWSENLFQCFNCSLCLNGTVHLSCQEKQNTVC |
| 941% | TNFRI126-A9 (receptor, Met-TNFRI126 mutant made in E. coli) MDSVCPQGKYIHPQNNSICCTKCHKGTYLYNDCPGPGQDTDCRECESGSFTAMENFLPACLSCSKCRKEMGQVEISSCTVDRDTVCGCRKNQYRHYWSENLFQCFNCSLCLNGTVHLSCQEKQNTVC |
| 741% | TNFRI126-A6 (receptor, Met-TNFRI126 mutant made in E. coli) MDSVCPQGKYIHPQNNSICCTKCHKGTYLYNDCPGPGQDTDCRECESGSFTALENFLPACLSCSKCRKEMGQVEISSCTVDRDTVCGCRKNQYRHYWSENLFQCFNCSLCLNGTVHLSCQEKQNTVC |
| 865% | TNFRI126-A8 (receptor, Met-TNFRI126 mutant made in E. coli) MDSVCPQGKYIHPQNNSICCTKCHKGTYLYNDCPGPGQDTDCRECESGSFTAFENFLPACLSCSKCRKEMGQVEISSCTVDRDTVCGCRKNQYRHYWSENLFQCFNCSLCLNGTVHLSCQEKQNTVC |
| 600% | TNFRI126-A7 (receptor, Met-TNFRI126 mutant made in E. coli) MDSVCPQGKYIHPQNNSICCTKCHKGTYLYNDCPGPGQDTDCRECESGSFTAPENFLPACLSCSKCRKEMGQVEISSCTVDRDTVCGCRKNQYRHYWSENLFQCFNCSLCLNGTVHLSCQEKQNTVC |
| 765% | TNFRI126-A14 (receptor, Met-TNFRI126 mutant made in E. coli) MDSVCPQGKYIHPQNNSICCTKCHKGTYLYNDCPGPGQDTDCRECESGSFTATENFLPACLSCSKCRKEMGQVEISSCTVDRDTVCGCRKNQYRHYWSENLFQCFNCSLCLNGTVHLSCQEKQNTVC |
| 1010% | TNFRI126-A18 (receptor, Met-TNFRI126 mutant made in E. coli) MDSVCPQGKYIHPQNNSICCTKCHKGTYLYNDCPGPGQDTDCRECESGSFTAHENFLPACLSCSKCRKEMGQVEISSCTVDRDTVCGCRKNQYRHYWSENLFQCFNCSLCLNGTVHLSCQEKQNTVC |
| 341% | TNFRI126-A3 (receptor, Met-TNFRI126 mutant made in E. coli) MDSVCPQGKYIHPQNNSICCTKCHKGTYLYNDCPGPGQDTDCRECESGSFTAGENFLPACLSCSKCRKEMGQVEISSCTVDRDTVCGCRKNQYRHYWSENLFQCFNCSLCLNGTVHLSCQEKQNTVC |
